Positions count from the first letter of the chain named. No end group written: not given here.

A word on the Kd: it is the equilibrium constant for the complex coming apart. Read a high Kd as lower affinity. Broadly, the stoichiometry N is a count of units in the complex or per binding partner.

Data set [1] has as its target human AURKA_(123–403), kinase domain of Aurora kinase A, wild type (human) (UniProt O14965). The data set can be described thus: ITC. (In general: Isothermal titration calorimetry measures the heat released or taken up as one component is titrated into another.)
Data set [2] concerns the molecule itself. The data set can be described thus: SEC-MALS. Background: In gel filtration, larger molecules generally elute earlier.
The target in data set [3] is T1, AURKA_(123–403) W128A (human, UniProt O14965 123-403, W128A).
T1 sequence: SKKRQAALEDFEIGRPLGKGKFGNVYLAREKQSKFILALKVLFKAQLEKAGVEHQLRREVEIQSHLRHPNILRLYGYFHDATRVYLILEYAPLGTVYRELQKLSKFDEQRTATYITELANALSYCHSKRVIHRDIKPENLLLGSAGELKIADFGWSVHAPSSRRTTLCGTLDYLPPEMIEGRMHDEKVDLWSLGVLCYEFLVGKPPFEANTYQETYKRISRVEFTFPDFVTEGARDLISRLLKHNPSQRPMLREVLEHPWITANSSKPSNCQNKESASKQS
The data set can be described thus: fluorescence polarisation.

Data set [4] deals with T2, AURKA region (AURKA_(123–403)C290,393A) of CEP192-AURKA_(chimera) (human, UniProt O14965 123-403, C290,393A | C290,393A).
T2 sequence: T1 sequence with A6W, C168A, C271A
The data set can be described thus: crystal structure.

In data set [1], “N-terminal MBP-tagged AURKA-BD of human CEP192 residues 440 to 631 (from UniProt Q8TEP8 440-631) (domain or fragment)” came in with a Kd of 1.2 µM and a stoichiometry N of 1.

B1: CEP192-AURKA_(chimera): CEP192_(506–527) fused to AURKA_(123–403)C290,393A without linker residues (other)
chain: EDFRSGSEAFDLIAQDEEEFNKSKKRQWALEDFEIGRPLGKGKFGNVYLAREKQSKFILALKVLFKAQLEKAGVEHQLRREVEIQSHLRHPNILRLYGYFHDATRVYLILEYAPLGTVYRELQKLSKFDEQRTATYITELANALSYCHSKRVIHRDIKPENLLLGSAGELKIADFGWSVHAPSSRRTTLAGTLDYLPPEMIEGRMHDEKVDLWSLGVLCYEFLVGKPPFEANTYQETYKRISRVEFTFPDFVTEGARDLISRLLKHNPSQRPMLREVLEHPWITANSSKPSNAQNKESASKQS
In the case of B1, the “stoichiometry N” value in data set [2] stood at 3.
With EDFRSGSEAFDLIAQDEEEFNKEHQFIQEEN (also: FITC label, position not given here) [FITC-labeled CEP192_(506–536) peptide], in data set [3], the binding result is “binds”.
Turning to EDFRSGSEAFDLIAQDEEEFNK (domain or fragment) [CEP192 region (residues 506–527) of CEP192-AURKA_(chimera)], the binding result in data set [4] was “binds”.

The values are drawn from paper PMC10121170 (Science Advances, 2023).
